This series has as its system licensed KIR3DL1+ NK cells. The series is described as follows: NK cell degranulation (CD107α staining, flow cytometry) stimulated by patient-derived myeloma target cells. Format: cell-based, human. As to conditions: presence vs absence of SAR650984; myeloma target cells expressing HLA-Bw4-I80 ligand; FIG. 8. The protocol: The functional capacity of a patient's NK cells stimulated by pre-treatment patient-derived myeloma target cells was assessed in response to SAR650984, using flow cytometry (FIG. 8).
(In flow cytometry, cells or beads pass a laser one at a time.)

For the substance “SAR650984: a humanized anti-CD38 antibody; comprises VH and VL CDR sequences set forth in SEQ ID NOs:1-6”, the “Degranulation as measured by CD107α staining (surrogate marker for cytotoxicity)” value is reported as “greatly enhanced degranulation”.

(Values after patent US10617757B2, “Methods for treating multiple myeloma” (The Regents of the University of California, priority 2014, dated 2020).)
